Assay results taken from patent US20230012273A1 (Boehringer Ingelheim, published 2023).

T1: cynoSIRPα (NP_001271679), Extracellular Domain + His-Tag (cynomolgus monkey)
T1 construct: also called CySIRPα NP_001271679; not shown: His-Tag
T1 chain: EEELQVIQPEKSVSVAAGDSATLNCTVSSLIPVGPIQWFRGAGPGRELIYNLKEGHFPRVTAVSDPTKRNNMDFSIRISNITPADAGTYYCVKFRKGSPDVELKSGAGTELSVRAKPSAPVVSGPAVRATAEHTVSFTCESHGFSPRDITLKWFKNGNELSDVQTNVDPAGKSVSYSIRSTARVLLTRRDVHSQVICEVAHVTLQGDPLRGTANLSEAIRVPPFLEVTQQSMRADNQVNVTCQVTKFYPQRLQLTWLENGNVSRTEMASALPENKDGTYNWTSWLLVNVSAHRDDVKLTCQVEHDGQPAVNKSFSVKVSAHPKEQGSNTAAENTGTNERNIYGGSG

T2: cynoSIRPα (XP_015313155), Extracellular Domain + His-Tag (cynomolgus monkey)
T2 construct: also called CySIRPα XP_015313155; not shown: His-Tag
T2 chain: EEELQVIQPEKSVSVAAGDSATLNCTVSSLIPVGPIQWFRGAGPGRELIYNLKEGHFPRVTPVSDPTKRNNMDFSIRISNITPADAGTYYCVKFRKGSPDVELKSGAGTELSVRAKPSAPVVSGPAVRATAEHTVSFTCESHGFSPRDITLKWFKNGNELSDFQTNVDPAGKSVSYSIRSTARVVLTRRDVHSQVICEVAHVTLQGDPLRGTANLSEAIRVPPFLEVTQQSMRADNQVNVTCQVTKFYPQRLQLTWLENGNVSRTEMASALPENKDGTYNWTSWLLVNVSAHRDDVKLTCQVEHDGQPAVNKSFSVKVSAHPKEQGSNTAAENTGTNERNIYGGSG

T3: cynoSIRPα (EGM_02252), Extracellular Domain + His-Tag (cynomolgus monkey)
T3 construct: also called CySIRPα EGM_02252; not shown: His-Tag
T3 chain: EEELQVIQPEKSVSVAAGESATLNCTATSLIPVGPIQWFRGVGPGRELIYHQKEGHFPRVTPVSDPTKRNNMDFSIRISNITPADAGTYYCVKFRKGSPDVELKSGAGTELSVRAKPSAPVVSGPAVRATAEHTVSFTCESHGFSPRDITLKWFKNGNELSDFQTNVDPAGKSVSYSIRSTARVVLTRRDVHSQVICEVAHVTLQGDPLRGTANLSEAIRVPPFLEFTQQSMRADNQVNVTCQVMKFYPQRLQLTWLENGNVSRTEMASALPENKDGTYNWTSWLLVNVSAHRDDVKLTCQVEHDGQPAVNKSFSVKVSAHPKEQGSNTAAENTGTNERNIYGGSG

B1: Antibody E12 (antibody, human IgG1, kappa, L234A L235A, V domains shown)
VH: QVQLQESGPGLVRPSETLSLTCTVSGGSIRNYYWSWIRQPPGKGLEWIGFIYYNGRTFYNPSLKSRVTISLDMSKNQFSLKMTSVTAADTAVYYCARVRAYSGIGLDGTDVWGQGTTVTVSS
VL: DIVMTQSPLSLPVTPGEPASISCKSSQSLLYSNAYNYLDWYLQRPGQSPQLLIYLGSNRASGVPDRFSGSGSGTDFTLKISRVEAEDVGVYYCMQALQTPLTFGGGTKVEIKR
B2: Antibody E13 (antibody, human IgG1, kappa, L234A L235A, V domains shown)
VH: QVQLQESGPGLVRPSETLSLTCTVSGGSIRNYYWSWIRQPPGKGLEWIGFIYYTGRTFYNPSLKSRVTISLDMSINQFSLKMTSVTAADTAVYYCARVRAYSGIGLDGTDVWGQGTTVTVSS
VL: DIVMTQSPLSLPVTPGEPASISCKSSQSLLYSNGYAYLDWYLQRPGQSPQLLIYQGSNRASGVPDRFSGSGSGTDFTLKISRVEAEDVGVFYCMQALQTPLTFGGGTKVEIKR
B3: Antibody E14 (antibody, human IgG1, kappa, L234A L235A, V domains shown)
VH: QVQLQESGPGLVRPSETLSLTCTVSGGSIRNYYWSWIRQPPGKGLEWIGFIYYNGRTFYNPSLKSRVTISLDKSKNQFSLKMTSVTAADTAVYYCARVRAYSGIGLDGTDVWGQGTTVTVSS
VL: DIVMTQSPLSLPVTPGEPASISCKSSQSLLYSNAYNYLDWYLQRPGQSPQLLIYLGSNRASGVPDRFSGSGSGTDFTLKISRVEAEDVGVYYCMQALQTPLTFGGGTKVEIKR
B4: Antibody E15 (antibody, human IgG1, kappa, L234A L235A, V domains shown)
VH: QVQLQESGPGLVRPSETLSLTCTVSGGSIRNYYWSWIRQPPGKGLEWIGFIYYTGRTFYNPSLKSRVTISLDMSINQFSLKMTSVTAADTAVYYCARVRAYSGIGLDGTDVWGQGTTVTVSS
VL: DIVMTQSPLSLPVTPGEPASISCKSSQSLLYSNGYAYLDWYLQRPGQSPQLLIYLGSNRASGVPDRFSGSGSGTDFTLKISRVEAEDVGVYYCMQALQTPLTFGGGTKVEIKR
B5: Antibody E16 (antibody, human IgG1, kappa, L234A L235A, V domains shown)
VH: QVQLQESGPGLVRPSETLSLTCTVSGGSIRNYYWSWIRQPPGKGLEWIGFIYYNGRTFYNPSLKSRVTISLDTSKNQFSLKMTSVTAADTAVYYCARVRAYSGIGLDGTDVWGQGTTVTVSS
VL: DIVMTQSPLSLPVTPGEPASISCKSSQSLLYSNAYNYLDWYLQRPGQSPQLLIYLGSNRASGVPDRFSGSGSGTDFTLKISRVEAEDVGVYYCMQALQTPLTFGGGTKVEIKR
B6: Antibody E17 (antibody, human IgG1, kappa, L234A L235A, V domains shown)
VH: QVQLQESGPGLVRPSETLSLTCTVSGGSIRNYYWSWIRQPPGKGLEWMGFIYDNGRTFYNPSLKSRVTISLDMSMNQFSLKMTSVTAADTAVYYCARVRAYSGIGLDGTDVWGQGTTVTVSS
VL: DIVMTQSPLSLPVTPGEPASISCKSSQSLLYSNAYNYLDWYLQRPGQSPQLLIYLGSNRASGVPDRFSGSGSGTDFTLKISRVEAEDVGVYYCMQALQTPLTFGGGTKVEIKR
B7: Antibody E18 (antibody, human IgG1, kappa, L234A L235A, V domains shown)
VH: QVQLQESGPGLVRPSETLSLTCTVSGGSIRNYYWSWIRQPPGKGLEWIGFIYYTGRTFYNPSLKSRVTISLDMSKNQFSLKMTSVTAADTAVYYCARVRAYSGIGLDGTDVWGQGTTVTVSS
VL: DIVMTQSPLSLPVTPGEPASISCKSSQSLLYSNGYAYLDWYLQRPGQSPQLLIYLGSNRASGVPDRFSGSGSGTDFTLKISRVEAEDVGVYYCMQALQTPLTFGGGTKVEIKR
B8: Antibody E19 (antibody, human IgG1, kappa, L234A L235A, V domains shown)
VH: QVQLQESGPGLVRPSETLSLTCTVSGGSIRNYYWSWIRQPPGKGLEWIGFIYYTGRTFYNPSLKSRVTISLDMSKNQFSLKMTSVTAADTAVYYCARVRAYSGIGLDGTDVWGQGTTVTVSS
VL: DIVMTQSPLSLPVTPGEPASISCKSSQSLLYSNGYAYLDWYLQRPGQSPQLLIYQGSNRASGVPDRFSGSGSGTDFTLKISRVEAEDVGVFYCMQALQTPLTFGGGTKVEIKR

How the values were obtained:
[1] = target: T1, cynoSIRPα (NP_001271679), Extracellular …; assay: SPR, antibody captured on Protein A/G, ECD-His analyte, 1:1 fit
How it was run: (§1)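 Analyte was His-tagged SIRPα extracellular domain in dilution series, associating 300 s and dissociating 600 s at 30 μl/min. Ligand was antibody captured (~240 RU) on immobilized Protein A/G (~3000 RU). Running buffer HBS-EP+.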

[2] = target: T4, Human SIRPαV1 (NP_542970.1), Extracellular Domain + His-Tag (human, UniProt P78324 31-373); assay: as above
T4 construct: also called huSIRPαV1; hSIRPαV1; not shown: His-Tag
T4 sequence (P78324 other isoform, or with tags, fused parts or gaps): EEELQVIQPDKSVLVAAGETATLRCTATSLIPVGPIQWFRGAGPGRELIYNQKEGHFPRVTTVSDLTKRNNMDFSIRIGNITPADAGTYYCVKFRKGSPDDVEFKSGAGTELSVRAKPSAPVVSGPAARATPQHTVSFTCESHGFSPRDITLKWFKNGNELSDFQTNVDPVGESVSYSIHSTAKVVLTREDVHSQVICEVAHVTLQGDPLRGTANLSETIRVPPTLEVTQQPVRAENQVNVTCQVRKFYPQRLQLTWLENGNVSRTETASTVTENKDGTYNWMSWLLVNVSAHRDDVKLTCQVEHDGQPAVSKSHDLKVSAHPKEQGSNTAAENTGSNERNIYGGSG
How it was run: as §1

[3] = target: T5, Human SIRPαV2 (CAA71403.1), Extracellular Domain + His-Tag (human, UniProt P78324 31-373); assay: as above
T5 construct: also called huSIRPαV2; hSIRPαV2; not shown: His-Tag
T5 sequence (P78324 other isoform, or with tags, fused parts or gaps): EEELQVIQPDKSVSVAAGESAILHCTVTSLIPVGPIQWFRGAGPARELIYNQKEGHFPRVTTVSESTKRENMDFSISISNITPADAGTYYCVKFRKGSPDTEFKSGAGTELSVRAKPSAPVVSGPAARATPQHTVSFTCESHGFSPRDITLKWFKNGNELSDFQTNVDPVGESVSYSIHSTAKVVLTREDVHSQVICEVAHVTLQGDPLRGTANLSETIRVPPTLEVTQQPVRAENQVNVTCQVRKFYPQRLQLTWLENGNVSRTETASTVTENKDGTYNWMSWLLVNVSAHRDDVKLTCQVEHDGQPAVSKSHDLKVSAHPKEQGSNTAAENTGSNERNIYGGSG
How it was run: as §1

[4] = target: T2, cynoSIRPα (XP_015313155), Extracellular …; assay: as above
How it was run: as §1

[5] = target: T3, cynoSIRPα (EGM_02252), Extracellular …; assay: SPR, antibody captured on Protein A/G, ECD-His analyte
Procedure: The binding kinetics of anti-SIRPα antibodies to various SIRPα analytes are determined by surface plasmon resonance (SPR) using a Biacore 8K+(Cytiva). 1×HBS-EP+(Cytiva) is used as running buffer and for all the dilutions unless stated otherwise. The Series S CM5 sensorchip is activated with a 1:1 mixture of 0.1 M NHS (N-hydroxysuccinimide) and 0.4 M EDC (1-Ethyl-3-(3-dimethylaminopropyl) carbodiimide hydrochloride) for 420 seconds at a flow rate of 10 μl/min and immobilized with Protein A/G (Thermo Scientific, 10 μg/ml in 10 mM acetate pH 4.5) for 420 seconds at a flowrate of 10 μl/min resulting in approximately 3000 RU of Protein A/G on the surface. The sensorchip is then deactivated with 1 M ethanolamine HCl pH 8.5 for 420 seconds at a flowrate of 10 μl/min.
Antibodies (approximately 1 ug/ml) are captured on the Protein A/G surface for 60 seconds at a flowrate of 10 μl/min resulting in capture levels of approximately 240 RU. Dilutions of each SIRP protein (Extracellular Domain+His-Tag, with the concentrations as indicated) are injected as analytes over the captured antibody for 300 seconds of association at a flowrate of 30 μl/min, followed by a dissociation for 600 seconds.

Binder	Kd [1] [µM]	koff [1] [s⁻¹]	kon [1] [M⁻¹ s⁻¹]	Kd [2] [µM]	koff [2] [s⁻¹]	kon [2] [M⁻¹ s⁻¹]	Kd [3] [µM]	koff [3] [s⁻¹]	kon [3] [M⁻¹ s⁻¹]	Kd [4] [µM]	koff [4] [s⁻¹]	kon [4] [M⁻¹ s⁻¹]	binding result [5]
B1	0.0461	0.0129	279000	0.00167	0.000819	490000	0.00126	0.000709	562000	0.0422	0.0125	297000	no binding (tested: 1000 nM)
B2	0.0383	0.00755	197000	0.0017	0.000671	394000	0.00069	0.000338	490000	0.0374	0.00711	190000	no binding (tested: 1000 nM)
B3	0.0907	0.0173	190000	0.00184	0.000743	403000	0.00136	0.000615	453000	0.0863	0.0173	200000	no binding (tested: 1000 nM)
B4	0.0494	0.012	243000	0.00191	0.000802	421000	0.00074	0.000369	501000	0.0462	0.0113	245000	no binding (tested: 1000 nM)
B5	0.05	0.0158	313000	0.00215	0.00106	490000	0.00193	0.00105	547000	0.0488	0.0147	300000	no binding (tested: 1000 nM)
B6	0.0448	0.0126	282000	0.00236	0.000955	405000	0.0008	0.000405	508000	0.0432	0.0126	292000	no binding (tested: 1000 nM)
B7	0.0525	0.0118	224000	0.00246	0.00101	410000	0.0009	0.000443	493000	0.05	0.0113	226000	no binding (tested: 1000 nM)
B8	0.0466	0.00725	156000	0.00252	0.000843	334000	0.00097	0.000399	411000	0.0447	0.00687	154000	no binding (tested: 1000 nM)
